Measured values reported in article PMC7020344.

Target: Pyruvate kinase M2 isoform (human (endogenous in A549)) (UniProt P14618)
Assay: cross-linking; A549 cells washed with PBS pH 8.0 and treated with BS3 for 1 h at room temperature before lysis in loading buffer; dimers and tetramers by immunoblot; cells with eEF2K depletion, overexpression or A484954

Pyruvate kinase M2 isoform, P14618 1-531 (enzyme; other documents disagree on this pair), sequence (P14618 whole entry, canonical isoform): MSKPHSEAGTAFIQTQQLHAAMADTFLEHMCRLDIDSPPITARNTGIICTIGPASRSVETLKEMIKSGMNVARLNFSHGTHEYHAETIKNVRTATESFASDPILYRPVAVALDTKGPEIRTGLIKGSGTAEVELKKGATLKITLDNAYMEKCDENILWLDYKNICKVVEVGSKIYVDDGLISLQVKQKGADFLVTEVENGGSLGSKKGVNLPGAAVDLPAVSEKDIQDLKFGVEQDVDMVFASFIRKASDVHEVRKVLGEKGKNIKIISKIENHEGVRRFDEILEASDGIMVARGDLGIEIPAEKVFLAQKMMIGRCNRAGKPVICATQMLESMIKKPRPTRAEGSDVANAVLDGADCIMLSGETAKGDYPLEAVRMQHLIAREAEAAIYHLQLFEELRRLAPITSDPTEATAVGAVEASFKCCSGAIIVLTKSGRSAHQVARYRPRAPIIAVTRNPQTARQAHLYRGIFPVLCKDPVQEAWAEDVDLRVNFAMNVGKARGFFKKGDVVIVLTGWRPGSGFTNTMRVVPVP

## Pyruvate kinase M2 isoform, P14618 1-531 (enzyme; other documents disagree on this pair)
  stoichiometry N: 2
